Residue numbers refer to the chain shown, from its start. Names and notes keep the numbering of the source.
Legend:
[1] = target: endogenous mouse NLRP3 (bone marrow-derived macrophages and splenocytes of C57BL/6 mice) (mouse, UniProt Q8R4B8 1-1033); experiment: immunoprecipitation from LPS- and ATP-treated BMDMs (FIG. 4D)
[2] = target: T1, Flag-NLRP3 wild-type (WT), full-length, transfected into 293T cells (UniProt Q96P20 1-1036); experiment: GST pulldown in transfected 293T cells (FIG. 3A)
T1 construct: also called wild-type (WT) NLRP3; not shown: Flag tag
T1 sequence (Q96P20 whole entry): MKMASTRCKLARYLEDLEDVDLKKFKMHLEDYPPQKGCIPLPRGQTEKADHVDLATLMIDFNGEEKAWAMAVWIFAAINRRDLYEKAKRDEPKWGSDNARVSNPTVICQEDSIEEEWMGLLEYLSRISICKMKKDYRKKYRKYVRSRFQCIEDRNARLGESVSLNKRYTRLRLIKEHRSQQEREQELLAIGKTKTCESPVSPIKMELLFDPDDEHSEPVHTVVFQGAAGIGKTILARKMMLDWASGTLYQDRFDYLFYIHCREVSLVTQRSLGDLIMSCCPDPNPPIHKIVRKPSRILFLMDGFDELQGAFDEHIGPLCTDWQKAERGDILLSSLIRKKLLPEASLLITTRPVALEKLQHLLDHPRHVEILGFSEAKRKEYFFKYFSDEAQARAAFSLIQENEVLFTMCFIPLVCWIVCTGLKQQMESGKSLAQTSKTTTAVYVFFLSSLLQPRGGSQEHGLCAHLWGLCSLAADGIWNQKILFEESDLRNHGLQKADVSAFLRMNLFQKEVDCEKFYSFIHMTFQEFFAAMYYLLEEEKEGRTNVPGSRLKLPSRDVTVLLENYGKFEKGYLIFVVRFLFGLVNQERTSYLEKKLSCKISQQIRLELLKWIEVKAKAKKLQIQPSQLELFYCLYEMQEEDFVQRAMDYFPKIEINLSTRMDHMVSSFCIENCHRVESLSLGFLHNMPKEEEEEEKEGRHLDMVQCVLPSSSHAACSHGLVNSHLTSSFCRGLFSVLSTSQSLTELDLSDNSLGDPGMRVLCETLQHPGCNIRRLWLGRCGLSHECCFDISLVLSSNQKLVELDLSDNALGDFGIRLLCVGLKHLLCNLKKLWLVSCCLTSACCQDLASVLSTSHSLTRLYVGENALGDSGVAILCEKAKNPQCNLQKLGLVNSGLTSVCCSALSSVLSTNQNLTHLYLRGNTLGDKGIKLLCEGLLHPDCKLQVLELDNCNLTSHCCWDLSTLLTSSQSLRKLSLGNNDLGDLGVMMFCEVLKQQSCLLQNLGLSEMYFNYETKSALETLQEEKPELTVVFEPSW

Sequence of endogenous mouse NLRP3 (bone marrow-derived macrophages and splenocytes of C57BL/6 mice) (Q8R4B8 whole entry): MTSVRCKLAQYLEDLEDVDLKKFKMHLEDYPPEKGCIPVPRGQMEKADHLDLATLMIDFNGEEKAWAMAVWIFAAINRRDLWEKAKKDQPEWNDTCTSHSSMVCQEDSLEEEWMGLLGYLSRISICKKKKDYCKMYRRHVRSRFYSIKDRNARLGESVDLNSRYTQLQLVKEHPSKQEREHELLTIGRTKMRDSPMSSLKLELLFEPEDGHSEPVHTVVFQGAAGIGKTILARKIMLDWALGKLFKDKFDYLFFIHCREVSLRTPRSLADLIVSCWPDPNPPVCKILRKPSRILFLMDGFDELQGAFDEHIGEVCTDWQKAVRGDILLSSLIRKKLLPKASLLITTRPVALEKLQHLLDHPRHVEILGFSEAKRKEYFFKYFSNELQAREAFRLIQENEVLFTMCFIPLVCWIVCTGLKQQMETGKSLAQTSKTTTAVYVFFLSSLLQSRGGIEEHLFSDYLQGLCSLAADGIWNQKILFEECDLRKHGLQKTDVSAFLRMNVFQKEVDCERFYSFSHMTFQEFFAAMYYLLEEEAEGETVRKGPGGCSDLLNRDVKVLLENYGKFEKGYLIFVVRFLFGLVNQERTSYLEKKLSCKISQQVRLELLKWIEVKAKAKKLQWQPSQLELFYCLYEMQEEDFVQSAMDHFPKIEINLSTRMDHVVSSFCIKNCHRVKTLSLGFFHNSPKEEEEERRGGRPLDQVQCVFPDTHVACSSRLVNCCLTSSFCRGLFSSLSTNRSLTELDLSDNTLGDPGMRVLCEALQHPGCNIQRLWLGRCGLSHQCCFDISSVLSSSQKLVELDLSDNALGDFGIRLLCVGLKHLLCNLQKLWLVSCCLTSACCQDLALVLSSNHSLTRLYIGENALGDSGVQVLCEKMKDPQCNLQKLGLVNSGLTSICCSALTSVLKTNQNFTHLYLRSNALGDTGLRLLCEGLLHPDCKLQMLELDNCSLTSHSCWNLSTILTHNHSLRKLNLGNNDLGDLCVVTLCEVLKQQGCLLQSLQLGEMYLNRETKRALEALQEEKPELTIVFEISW

B1: recombinant GRA9C (residues 195-288) with N-terminal 6x His tag, purified from E. coli (other)
chain: HHHHHHMSVDPQCIMTREVVAQKLAGWTDNTHTATAGTPKKLLISFPSPDHIKEMVKEGYLPDNALERVLAGDFEGFSRTQMCLVSGRNRTECAFAEGQE
notes: also called rGRA9C; 6xHis-GRA9C
Q: Does B1 bind [1]?
A: binds

B2: recombinant GRA9C^Q200L (residues 195-288, Q200L) with N-terminal 6x His tag, purified from E. coli (other)
chain: B1 chain with Q12L
notes: also called rGRA9C^Q200L
Q: Does B2 bind [1]?
A: no binding

B3: GST-GRA9 C-terminal domain containing the Q200L mutation (other)
chain: MSVDPLCIMTREVVAQKLAGWTDNTHTATAGTPKKLLISFPSPDHIKEMVKEGYLPDNALERVLAGDFEGFSRTQMCLVSGRNRTECAFAEGQE
notes: also called GST-GRA9 C^Q200L; GST-GRA9 containing the Q200L mutation at the C-terminus
Q: Does B3 bind [2]?
A: no binding

From patent publication US20220306707A1 (INDUSTRY UNIVERSITY COOPERATION FOUNDATION HANYANG …, published 2022)
